In brackets after ≈: the same amount, converted by molar mass. Read-outs that look alike come from different tables or passages of the source.

Data set [1] deals with Escherichia coli ATCC 25922. Nature of the data set: microbe, parasite or virus in culture. In kind it is cell-based. The settings on record: for EC50 / EC90: Escherichia coli, ATCC25922, no enzyme; for EC90: Table 17, read-out: Ceftriaxone EC90.
Data set [2] concerns Escherichia coli ATCC 25922. Nature of the data set: microbe, parasite or virus in culture. In kind it is cell-based. The settings on record: for inhibition by sulbactam: amp/sulbactam data. The method, then:
(§1) Escherichia coli strain 25922 was cultured from glycerol stocks to logarithmic growth in cation adjusted Mueller-Hinton broth at 37° C. in an atmospheric environment and diluted in cation adjusted Mueller-Hinton broth to achieve a starting in well concentration of 5×10^5 CFU/mL. Serial 2-fold dilution of antimicrobial compounds were prepared in cation adjusted Mueller-Hinton broth to achieve final in well concentration of 128 μg/mL to 0.13 μg/mL for ampicillin and 4 μg/mL 4 ng/mL in the absence or presence of serial 10-fold dilutions of P1A, P3A, or P4A β-lactamase standard, 5 pg/mL to 50 ng/mL for ampicillin and […] to 500 ng/mL for ceftriaxone, ceftazidime, meropenem, cefepime, cefazolin, amp/sulbactam, cefoperazone, cefotaxime, and cefuroxime. Antibiotics were either added to the P1A and incubated for 30 min at 37° C. (pre-incubation) prior to addition of bacteria, or added to the plates following the addition of P1A, P3A, P4A, and bacteria (simultaneous). All concentrations and combinations were evaluated in triplicate in a 96-well plate format that contained media only, compound plus media only (colorimetric control), and untreated bacterial controls.
Next, the 90% effective inhibitory concentration (EC90) of ampicillin, ceftriaxone, ceftazidime, meropenem, cefepime, cefazolin, amp/sulbactam, cefoperazone, cefotaxime, and cefuroxime against Escherichia coli was determined in the absence and presence of P1A, P3A, or P4A β-lactamase. For the purposes of these studies, the stated effective concentration was the initial concentration of ampicillin, ceftriaxone, ceftazidime, meropenem, cefepime, cefazolin, amp/sulbactam, cefoperazone, cefotaxime, and cefuroxime added at the beginning of the experiment, and not a concentration measured during the course of the experiment or at the end of the incubation period.
Specifically, the assay was performed by diluting (2-fold steps) the chosen antibiotic across the rows of a 96 well dish. The MIC was determined as the point at which the diluted antibiotic transitions from killing to not killing the bacteria (in this case, an E. coli strain that is sensitive to all antibiotics). P1A, P3A, and P4A were diluted (10 fold steps) down the columns (the β-lactamase concentrations increased down the columns). […] The latter point was used as the cut-off point. […] However, for this assay, the absolute MIC is not the most important parameter. The most relevant readout was the β-lactamase concentration at which the apparent MIC increases to the maximum amount of antibiotic tested.
E coli 29522 was incubated overnight in the presence of serial dilutions of antibiotic and the indicated amounts of β-lactamase protein from cell culture supernatants in a 96 well plate. Bacterial density (OD625) of the cultures was measured and the concentration at which the density was reduced by 90% relative to an untreated bacterial control (EC90) was determined. The assay was performed on two separate days and the data reported as Rep1 and Rep2. NA=not assayed.
E coli 29522 was incubated overnight in the presence of serial dilutions of antibiotic and the indicated amounts of β-lactamase protein from cell culture supernatants in a 96 well plate. Bacterial density (OD625) of the cultures was measured and the concentration at which the density was reduced by 90% relative to an untreated bacterial control (EC90) was determined.

The subject of data set [3] is Escherichia coli ATCC 25922. Put plainly: Microbroth dilution: EC50 of ampicillin and ceftriaxone in absence and presence of P1A. The format is cell-based. The settings on record: absence of P1A; ceftriaxone 0.13 to 128 μg/mL. A general note: Dilution methods test growth across graded concentrations, often in twofold steps.
Data set [4] deals with Escherichia coli ATCC 25922. The description is as above. In kind it is cell-based. The settings on record: for EC50: Escherichia coli, ATCC25922, P1A 0, read-out: Ceftriaxone EC50. As to the method:
as §1
The 50% effective inhibitory concentration (EC50) of ampicillin and ceftriaxone against Escherichia coli was determined in the absence and presence of P1A β-lactamase. For the purposes of these studies, the stated effective concentration was the initial concentration of ampicillin or ceftriaxone added at the beginning of the experiment, and not a concentration measured during the course of the experiment or at the end of the incubation period.
Antibiotics were either added to the P1A and incubated for 30 min at 37° C. (Pre-incubation) prior to addition of bacteria, or added to the plates following the addition of P1A and bacteria (Simultaneous). All concentrations and combinations were evaluated in triplicate in a 96-well plate format. Following overnight incubation, the 0D625 of the plates was measured in a Spectramax 384 plate reader and the data were imported into a customized Excel spreadsheet for the determination of the 50% effective inhibitory concentration at (EC50) by linear regression analysis. For the purposes of these studies, the stated effective concentration is the initial concentration of ampicillin or ceftriaxone added at the beginning of the experiment, and not a concentration measured during the course of the experiment or at the end of the incubation period.
Antibiotics were either added to the P1A and incubated for 30 min at 37° C. (Pre-incubation) prior to addition of bacteria, or added to the plates following the addition of P1A and bacteria (Simultaneous). All concentrations and combinations were evaluated in triplicate in a 96-well plate format. Following overnight incubation, the OD625 of the plates was measured in a Spectramax 384 plate reader and the data were imported into a customized Excel spreadsheet for the determination of the 50% effective inhibitory concentration (EC50).
Antibiotics were added to the P1A bacteria (Simultaneous). All concentrations and combinations were evaluated in triplicate in a 96-well plate format. Following overnight incubation, the OD625 of the plates was measured in a Spectramax 384 plate reader and the data were imported into a customized Excel spreadsheet for the determination of the 50% effective inhibitory concentration at (EC50) by linear regression analysis.

The next data set concerns E. coli (ATCC 25922). Nature of the data set: Microtiter plate antibiotic degradation activity assay. The format is cell-based. The method, then:
P1A and P4A were screened for degradation of ampicillin, ceftriazone, cefotaxime, cefozolin, cefuroxime, cefoperazone, cefepime, and ceftazidime in a microtiter plate activity assay that was designed to mimic the activity of the beta-lactamases in the gut in the presence of high antibiotic concentrations. The assay was performed by mixing 10, 100 or 1000 μg/ml of the indicated antibiotics with P1A or P4A, at concentrations of 10 or 100 ng/ml. Plates were either incubated for one hour at 37° C. after which E. coli (ATCC 25922) was added, or E. coli was added immediately after the addition of the beta-lactamase enzymes. The plates were incubated overnight and the bacterial growth quantified by measuring the absorbance at 625 nm (OD625) in a Spectramax 384 Plus plate reader. The analysis was performed twice for each beta-lactamase and antibiotic. The beta-lactamase activity of the culture supernatants was determined as positive or negative based on the appearance of bacterial growth in the individual wells. An OD625 of 1.0 or greater indicated maximal bacterial growth, therefore complete antibiotic degradation and high beta-lactamase activity.

Data set [5] in a line: Kinetic parameters of P1A mutant strains. The format is biochemical. As to the method: (§2) β-lactamase activity of the mutants was further characterised from E. coli cell lysates and B. subtilis growth supernatant with ampicillin, cefotaxime, ceftriaxone, cefuroxime, ceftazidime, meropenem and imipenem. The activities were determined using only one substrate concentration of each antibiotic tested. Selection of the antibiotic concentration was done with the antibiotic concentration as high as was practical, [S]>>Km. Based on these preliminary experiments, more accurate kinetic parameters were determined for a couple of mutants from both the site-directed and the random mutagenesis research lines. All the mutant enzymes selected for more detailed study were expressed in the B. subtilis host strain RS303. The cells carrying the mutated proteins were grown in minimal medium over-night after which the cells were harvested and the supernatant was concentrated in 1:10 with Amicon Ultra-4 centrifugal devices, MWCO 10000 (Amicon). Protein concentration in each culture supernatant was estimated from 12% SDS-PAGE (Criterion XT Bis-Tris, BioRad, Calif., USA) using the P1A reference material A18K31 as a standard. Kinetic parameters were measured for cefotaxime, ceftriaxone and cefuroxime for each selected mutant strain. The site-directed mutants were designed to hydrolyze cefotaxime and random mutants were screened with ceftriaxone, which made these antibiotics natural choices for determining kinetic parameters.

The conditions of data set [6]: cited from earlier work.
Data set [7] in a line: Preliminary enzymatic activity of P1A mutants from B. subtilis supernatants. The settings on record: B. subtilis supernatant, one substrate concentration. In kind it is biochemical. As to the method: as §2
[8] abbreviates: concentrated B. subtilis supernatant.
The mark [9] stands for this setting: relative values of P1A activities.

As a reminder, the EC50 is the concentration giving half of the maximal effect. A word on the EC90: it is the point of the concentration-response curve where the effect stands at 90%. With `CO/N=C(\C(=O)N[C@@H]1C(=O)N2C(C(=O)O)=C(CSc3nc(=O)c(=O)[nH]n3C)CS[C@H]12)c1csc(N)n1` [Ceftriaxone], the EC50 in data set [1] (1st value, high test 1 μg/mL, Table 16, read-out: Ceftriazone EC50) was 0.06 µg/mL (≈ 0.108 µM); in data set [1] (2nd value, high test 1 μg/mL, Table 16, read-out: Ceftriazone EC50), 0.06 µg/mL (≈ 0.108 µM); in data set [1] (Rep 2, Table 15, read-out: Ceftriaxone EC50) it was 0.02 µg/mL (≈ 0.0361 µM); in data set [4] (pre-incubation, Table 12), under 0.13 µg/mL; in data set [4] (pre-incubation, Table 13), 0.03 µg/mL; in data set [4] (simultaneous, Table 12), under 0.13 µg/mL. The EC50 is 0.02 µg/mL in data set [4] (simultaneous, Table 13) and 0.03 µg/mL in data set [4] (simultaneous, Table 14 repeat analysis). Besides, the EC90 in data set [1] (1st value, high test 1 μg/mL) is 0.03 µg/mL (≈ 0.0541 µM); in data set [1] (2nd value, high test 1 μg/mL), 0.03 µg/mL (≈ 0.0541 µM). Further, in data set [1] (no enzyme, Rep 1, Table 15), the “Ceftriaxone EC50” value turned out to be 0.008 µg/mL. The “Ceftriaxone EC90” value in data set [2] (no enzyme, 2nd value, high test 1 μg/mL, Table 17) was determined as 0.06 µg/mL. In addition, the “ceftriaxone EC99” value in data set [3] is under 0.13 µg/mL.
“P1A: Wild type; recombinant Bacillus licheniformis 749/C small exo beta-lactamase (PenP), SEQ ID NO: 1”: in the data set with E. coli (ATCC 25922) (enzyme 10 or 100 ng/ml, antibiotic 10, 100 or 1000 μg/ml, FIG. 8), the “activity for ceftriaxone, cefotaxime, and ceftazidime” value is reported as “no activity”. In addition, in data set [5] (setting [8]), the “Cefotaxime Vmax” value was found to be 1.18 nmol/s, the Cefotaxime kcat came to 16 s⁻¹, the “Ceftriaxone Vmax” value turned out to be 2.81 nmol/s and the Ceftriaxone kcat turned out to be 25 s⁻¹. Also, in data set [5] (setting [8]), the “Cefuroxime Vmax” value is 1.25 nmol/s and the Cefuroxime kcat is 23 s⁻¹. Further, in data set [5] (setting [9]), the “Cefotaxime Vmax” value turned out to be 1.00, the Cefotaxime kcat was 1 s⁻¹, the “Ceftriaxone Vmax” value amounted to 1.00 and the Ceftriaxone kcat came to 1 s⁻¹. Also, in data set [5] (setting [9]), the “Cefuroxime Vmax” value is 1.00 and the Cefuroxime kcat is 1 s⁻¹. For the same molecule, the “efficacy in humans with piperacillin/tazobactam” value in data set [6] was “efficacious”. For the same molecule, the inhibition by sulbactam result in data set [2] is listed as “effectively inhibited”. The “more active against ampicillin than ceftriaxone” value in data set [4] (microbiological assay) is given as 1,000 fold. Also, in data set [7], the “AMP = ampicillin enzymatic activity” value was 1.00 multiples of P1A, the “CAZ = ceftazidime enzymatic activity” value is 1.00 multiples of P1A, the “CRO = ceftriaxone enzymatic activity” value is on record as 1.00 multiples of P1A and the “CTX = cefotaxime enzymatic activity” value is on record as 1.00 multiples of P1A. The “CXM = cefuroxime enzymatic activity” value in data set [7] is given as 1.00 multiples of P1A.

B1: IS288: P1A with A232G A237S A238G S240D D276N; SEQ ID NO: 5 (protein)
chain: EMKDDFAKLEEQFDAKLGIFALDTGTNRTVAYRPDERFAFASTIKALTVGVLLQQKSIEDLNQRITTRDDLVNYNPITEKHVDTGMTLKELADASLRYSDNAAQNLILKQIGGPESLKKELRKIGDEVTNPERFEPELNEVNPGETQDTSTARALVTSLRAFALEDKLPSEKRELLIDWMKRNTTGDALIRAGVPDGWEVGDKTGSGDYGTRNDIAIIWPPKGDPVVLAVLSSRDKKDAKYDNKLIAEATKVVMKALNMNGK
Take B1: in data set [1] (data showed activity at 500 ng/ml), the “improvement of activity for ceftazidime” value amounted to 10 fold. Also, the “β-lactamase activity in comparison to P1A” value in data set [1] (for ceftriaxone, cefotaxime, ceftazidime, cefazolin, cefoperazone and cefuroxime) is listed as at least 10 fold. In the data set on E. coli (ATCC 25922) (enzyme 10 or 100 ng/ml, FIG. 8), the “activity relative to P1A, all antibiotics except ampicillin” value is listed as “imporved activity relative to P1A”. In the data set on E. coli (ATCC 25922) (modification of five amino acids in P1A), the “cephalosporinase activity boosted relative to P1A” value was 10-1000 fold. The inhibition by sulbactam entry in data set [2] is recorded as “effectively inhibited”.

Values taken from US9464280B1, “Beta-lactamases with improved properties for therapy” (priority 2014, dated 2016).
